Data from patent US20220380446A1 (ABL BIO, published 2022).
Where a chain is given by its changes, count along the chain named. Like-named read-outs stand apart in the source and are kept apart here.

B1: chimeric 1E4 antibody (antibody, V domains shown)
VH: QVQLQQSGAELVRPGTSVKVSCKASGYAFTNYLIEWVKQRPGQGLEWIGVINPGSGGTNYNEKFKGKATLTADKSSSTAYMQLSSLTSDDSAVYFCASGNYDTYWGQGTLVTVSA
VL: DVVMTQTPLSLPVSLGDQASISCRSSQSLVHSNGNTYLHWYLQKPGQSPKLLIYKVSNRFSGVPDRFSGSGSGTDFTLKISRVEAEDLGVYFCSQSTHVPRTFGGGTKLEIK
notes: VH and VL of mouse 1E4 with human IgG1 and kappa constant regions; also called ch1E4; Ch1E4
B2: hu1E4(V9_VL4) (antibody, human IgG1, V domains shown)
VH: QVQLVQSGAEVKKPGASVKVSCKASGYTFTNYLIEWVRQAPGQGLEWIGVINPGSGGTNYNEKFKGRATLTADKSISTAYMELSRLRSDDTAVYYCASGNYDTYWGQGTLVTVSS
VL: B1 VL with T7S, S14T, D17Q, Q18P, L42Q, K44R, K50R, L88V, F92Y, L109V
notes: Monospecific; human IgG1 and kappa constant regions
B3: hu1E4(V1_VL1) (antibody, human IgG1, V domains shown)
VH: B2 VH with I48M, A68V, L70M, A72R, K74T
VL: B1 VL with V2I, P12S, S14T, L15P, D17Q, Q18P, K50Q, L88V, F92Y, G105Q
notes: Monospecific; fused to human IgG1 and kappa constant regions; also called humanized 1E4(V1_VL1); hu1E4(Ver.1_VL1)
B4: hu1E4(V8_VL4) (antibody, human IgG1, V domains shown)
VH: B2 VH with I48M, A68V, L70M
VL: B1 VL with T7S, S14T, D17Q, Q18P, L42Q, K44R, K50R, L88V, F92Y, L109V
notes: as for B2

Columns and labels:
[1] = target: T1, human α-synuclein pre-formed fibrils (Human Alpha Synuclein Pre-formed Fibrils Type II, StressMarq SPR-317) (human, UniProt P37840 1-140); assay: SPR Biacore T200, antibody captured on Protein A chip, α-syn PFF analyte, 1:1 model
Protocol: (§1) The equipment used was Biacore® (GE Healthcare, Model T200). Protein A (GE Healthcare, Cat: 29-1275-56) was used as a chip, 10 mM glycine-HCl pH 1.5 (GE Healthcare, Cat: BR-1003-54) was used as a regeneration buffer, and HBS-EP was used as a running buffer and an analyte dilution and sample dilution buffer. […] A capture phase was carried out at a contact time of 60 seconds and a flow rate of 30 μL/min was used for a stabilization period of 60 seconds, with the target resonance units (RU) of fibril set to 10 (theoretical). In an association phase, the association time was set to 60 seconds and a flow rate was set to 60 μL/min. In a dissociation phase, the dissociation time was set to 180 seconds, and a flow rate was set to 60 μL/min. In a regeneration phase, the flow rate was set to 30 μL/min, and the regeneration time was set to 60 seconds. A 1:1 binding model was used for fitting, and the Biacore® T200 Evaluation software (GE Healthcare) was used for the evaluation.

[2] = target: T1, human α-synuclein pre-formed fibrils …; assay: sandwich ELISA, antibody coated, α-syn PFF added, 7B7-biotin detection
Protocol: (§2) Specifically, the antibodies were diluted with PBS by six-fold serial dilution from 400 nM to 0.009 nM. The diluted antibodies were added to a 96-well plate at 100 μL/well for coating. The plate was sealed and incubated at 4° C. for 16 hours. After washing with phosphate-buffered saline with Tween® (PBS-T; 0.05% Tween® 20) five times, the plate was blocked with 5% BSA in PBS 200 μL/well at 37° C. for 2 hours. After washing with PBS-T five times, α-syn PFF (2 μg/mL, 100 μL/well in 2% BSA in PBS) was added to the plate and incubated at 37° C. for 2 hours. After washing with PBS-T five times, 7B7-biotin antibody (anti-α-syn antibody; 1 μg/mL/100 μL/well, in 2% BSA in PBS) was added and incubated at 37° C. for 2 hours. After washing with PBS-T five times, the plate was incubated with horseradish peroxidase (HRP)-bound streptavidin in PBS with 2% BSA (1:5000, 1 mg/mL stock, 20 ng/well, 100 μL/well) at 37° C. for 1 hour. After washing with PBS-T five times, 3,3′,5,5′-tetramethylbenzidine (TMB) (100 μL/well) was added and incubated at room temperature for 5 minutes. The reaction was stopped by the addition of 0.5 N H₂SO₄ (50 μL/well). Optical absorbance at 450 nm was measured by using a plate reader, with absorbance at 650 nm subtracted from the reading.

[3] = target: T1, human α-synuclein pre-formed fibrils …; assay: as above; remark: listed apart in the source
Protocol: as §2

[4] = target: T1, human α-synuclein pre-formed fibrils …; assay: as above; remark: listed apart in the source
Protocol: as §2

[5] = target: T1, human α-synuclein pre-formed fibrils …; assay: cell-based or functional assay
[6] = target: T1, human α-synuclein pre-formed fibrils …; assay: SPR Biacore T200, antibody captured on Protein A chip, α-syn PFF analyte, 1:1 model; remark: listed apart in the source
Protocol: as §1

[7] = target: T1, human α-synuclein pre-formed fibrils …; assay: sandwich ELISA, antibody coated, α-syn PFF added, 7B7-biotin detection; remark: listed apart in the source
Protocol: as §2

[8] = target: T1, human α-synuclein pre-formed fibrils …; assay: as above; remark: listed apart in the source
Protocol: as §2

[9] = target: T1, human α-synuclein pre-formed fibrils …; assay: SPR Biacore T200, antibody captured on Protein A chip, α-syn PFF analyte, 1:1 model; remark: listed apart in the source
Protocol: as §1

[10] = target: human α-synuclein oligomers (Dopamine HCL Stabilized Human Recombinant Alpha Synuclein Oligomers, StressMarq … (human, UniProt P37840 1-140)); assay: sandwich ELISA, antibody coated, oligomeric α-syn added, 7B7-biotin detection
Protocol: Human α-syn oligomers from StressMarq (Dopamine HCL Stabilized Human Recombinant Alpha Synuclein Oligomers, SPR-466) was used as the oligomeric α-syn in the assay.
In this sandwich ELISA, test antibodies were diluted with PBS by five-fold serial dilution from 80 nM to 0.005 nM. The serially diluted antibodies were added to a 96-well plate at 100 μL/well for coating. The plate was sealed and incubated at 4° C. for 16 hours. After washing with PBS-T five times, the plate was blocked with 5% BSA in PBS 200 μL/well at 37° C. for 2 hours. After washing with PBS-T five times, oligomeric α-syn (2 μg/mL, 100 μL/well in 2% BSA in PBS) was added and incubated at 37° C. for 2 hours. After washing with PBS-T five times, 7B7-biotin antibody (1 μg/mL, 100 μL/well, in 2% BSA in PBS) were added and incubated at 37° C. for 2 hours. After washing with PBS-T five times, the plate was incubated with Streptavidin-HRP in 2% BSA in PBS (1:5000, 1 mg/mL stock, 20 ng/well, 100 μL/well) at 37° C. for 1 hour. After washing with PBS-T five times, TMB (100 μL/well) was added and incubated at RT for 5 minutes. The reaction was stopped by the addition of 0.5 N H₂SO₄ (50 μL/well).

Kd [1]	koff [1]	kon [1]	EC50 [2]	EC50 [3]	EC50 [4]	phagocytosis of α-syn PFF by BV-2 cells (gMFI, FACS) [5]	Kd [6]	koff [6]	kon [6]	EC50 [7]	EC50 [8]	Kd [9]	koff [9]	kon [9]	EC50 [10]	Saturation point [10]	Binder
51.9 pM	0.00054 s⁻¹	1.04e+07 M⁻¹ s⁻¹	554 pM	484 pM	209 pM	2 fold against ch9E4	51.9 pM	0.00054 s⁻¹	1.04e+07 M⁻¹ s⁻¹	1610 pM	876 pM						B1
96 pM	0.00137 s⁻¹	1.42e+07 M⁻¹ s⁻¹			114 pM												B2
27.6 pM	0.000439 s⁻¹	1.59e+07 M⁻¹ s⁻¹								1100 pM	619 pM	30.2 pM	0.000415 s⁻¹	1.38e+07 M⁻¹ s⁻¹	3460 pM	3.16	B3
51 pM	0.000854 s⁻¹	1.68e+07 M⁻¹ s⁻¹			139 pM												B4
